The results in this text go back to patent US20060160990A1 (RIKEN, published 2006).

Positions count from the first letter of the chain named. Numbers in names are those of the source.

Series [1] deals with the molecule itself. The series can be described thus: self-association; pseudonative SDS/PAGE, 12.5% acrylamide, not boiled. The text has this:
(§1) In Momiji, asparagine (N) at position 11 was substituted with arginine (R), leucine (L) at position 29 was substituted with threonine (T), tyrosine (Y) at position 122 was substituted with glutamic acid (E), lysine (K) at position 136 was substituted with asparagine (N), glutamine (Q) at position 138 was substituted with leucine (L), glutamine (Q) at position 142 was substituted with proline (P), asparagine (N) at position 159 was substituted with aspartic acid (D), alanine (A) at position 161 was substituted with serine (S), tyrosine (Y) at position 190 was substituted with threonine (T), phenylalanine (F) at position 192 was substituted with tyrosine (Y), cysteine (C) at position 196 was substituted with serine (S), and 6 amino acids from position 224 to position 229 were deleted. By such operations, the above Momiji became a dimer (FIG. 24). This dimer had fluorescence properties that ultraviolet ray-irradiation-dependently change from green to red, which were equivalent to those of Momiji (FIG. 25). This mutant was named as d16. The amino acid sequence and nucleotide sequence of d16 are shown in SEQ ID NOS: 15 and 16, respectively.

Series [2] deals with the molecule itself. The series can be described thus: self-association; pseudonative SDS/PAGE, 12.5% acrylamide, sample not boiled. The text has this:
Since Kaede forms a tetramer, there may be cases where its expression pattern becomes abnormal when another protein is fused with Kaede. Thus, in Kaede, threonine (T) at position 158 was substituted with arginine (R), and alanine (A) at position 160 was substituted with glutamic acid (E), so as to produce a dimeric mutant. This mutant was named as Kaede 2. The amino acid sequence and nucleotide sequence of Kaede 2 are shown in SEQ ID NOS: 7 and 8 in the sequence listing, respectively. In electrophoresis on 12.5% acrylamide gel where sample was not boiled (Pseudonative SDS/PAGE), a band of Kaede 2 was detected as a molecule with a lower molecular weight than that of Kaede (FIG. 8).

Series [3] concerns the molecule itself. Kind of series: self-association; pseudonative SDS/PAGE, 12.5% acrylamide.
Description: as §1

Series [4] deals with the molecule itself. Kind of series: pseudonative SDS/PAGE, 12.5% acrylamide gel (self-association).

B1: Momiji (fluorescent protein derived from Scolymia vitiensis) (other)
chain: MVSVIKDEMKVNLRMEGSVNGHDFVIDGLGSGKPKEGTQTIELKVVKGGPLPFAYDILTTAFHYGNRVFAKYPKDIPNYFEQSFPEGYSWERSMIFEDGGICIARNDITMDGGTFYNKVRFYGVNFPPNGPVMQKKTQKWEQSTEKMYARDGVLTGDINMALLLKGGGHYRCDFRTTFKAKEKGVKLPGYHFIDHCIEILSHRNDYNNVTLFEHAVARSGLQDKEKQQQ
notes: Found to be a tetramer by pseudonative SDS/PAGE; also called WT (Momiji); wild type (Momiji); not shown: His-tag from the pET28 vector, said to be at the N-terminus
Take B1: the binding result in series [1] was “binds”.

B2: Kaede (fluorescent protein derived from Trachyphyllia geoffroyi) (other)
chain: MSLIKPEMKIKLLMEGNVNGHQFVIEGDGKGHPFEGKQSMDLVVKEGAPLPFAYDILTTAFHYGNRVFAKYPDHIPDYFKQSFPKGFSWERSLMFEDGGVCIATNDITLKGDTFFNKVRFDGVNFPPNGPVMQKKTLKWEASTEKMYLRDGVLTGDITMALLLKGDVHYRCDFRTTYKSRQEGVKLPGYHFVDHCISILRHDKDYNEVKLYEHAVAHSGLPDNVK
notes: also called first fluorescent protein of the present invention; not shown: N-terminal His-tag from the pRSETB vector
In the case of B2, the binding result in series [2] is on record as “binds”.

B3: Kaede 2 (dimeric mutant of Kaede, T158R and A160E) (other)
chain: B2 chain with T158R, A160E
notes: No tag or expression construct is stated for the gel sample
Turning to B3, the binding result in series [2] is given as “binds”.

B4: d16 (dimeric mutant of Momiji) (other)
chain: MVSVIKDEMKVRLRMEGSVNGHDFVIDGTGSGKPKEGTQTIELKVVKGGPLPFAYDILTTAFHYGNRVFAKYPKDIPNYFEQSFPEGYSWERSMIFEDGGICIARNDITMDGGTFYNKVRFEGVNFPPNGPVMQKNTLKWEPSTEKMYARDGVLTGDIDMSLLLKGGGHYRCDFRTTFKAKEKGVKLPGTHYIDHSIEILSHRNDYNNVTLFEHAVARSGLQD
notes: No tag is stated for the gel sample
On to B4, for which the binding result in series [3] was “binds”.

B5: m16 (monomeric mutant of Momiji) (other)
chain: B4 chain with I95T, I101V, I103T, V124T, N136K, F174M, F212Y
notes: as for B4
As for B5, the binding result in series [4] is “no binding”.
